The text below walks through data of the Immune Epitope Database (IEDB).

The target of one test is HLA-A*30:02. The experiment in a line: IEDB peptide-MHC binding, purified MHC/competitive/radioactivity; filed as Kd, often an IC50 or EC50 that approximates it; ≥ and ≤ were set here for values at or beyond the usual limits of such assays.
The target of a further test is HLA-A*02:02. The test is described as above.
The next test deals with HLA-A*02:06. The test is described as above.
Another test has as its target HLA-A*02:03. Described as above.
The next test deals with HLA-A*26:01. The test is described as above.
Another test has as its target HLA-B*07:02. The experiment in a line: IEDB peptide-MHC binding, purified MHC/direct/fluorescence; filed as Kd, often an IC50 or EC50 that approximates it; ≥ and ≤ were set here for values at or beyond the usual limits of such assays.
For a further test, the target named is HLA-B*15:01. The test is described as above.
The target of test [1] is HLA-A*02:01. The test is described as above.
Another test has as its target HLA-B*58:01. Described as above. To be noted: source organism: Haemophilus influenzae.
Test [2] addresses HLA-A*02:01. The experiment in a line: IEDB peptide-MHC binding, purified MHC/competitive/fluorescence; ≥ and ≤ were set here for values at or beyond the usual limits of such assays.
In a further test the target is HLA-B*46:01. The experiment in a line: IEDB peptide-MHC binding, purified MHC/direct/fluorescence; filed as Kd, often an IC50 or EC50 that approximates it; ≥ and ≤ were set here for values at or beyond the usual limits of such assays. The following applies: source organism: Yellow fever virus.
The target in another test is HLA-A*69:01. The test is described as above.
Setting [3] is: source organism: Vaccinia virus WR.
Where [4] appears, read: source organism: Haemophilus influenzae.
The mark [5] stands for this setting: source organism: Mammarenavirus guanaritoense.
[6] abbreviates: source organism: Salmonella enterica subsp. enterica serovar Typhimurium.
[7] abbreviates: source organism: SARS coronavirus Tor2.
Setting [8] is: source organism: Lassa virus Josiah.

A value given as a limit tells only on which side of the number the result lay.

By Kd is commonly meant the free concentration of one partner at which half of the binding sites on the other are occupied at equilibrium, for simple one-to-one binding. Consider RFKGEDGCWY, for which the dissociation constant Kd with HLA-A*30:02 (source organism: Dengue virus 1 Singapore/S275/1990) was 8.19 nM.

In the case of SVDVDIYDA, the Kd with HLA-A*02:02 (setting [3]) came to 1200 nM; with HLA-A*02:06 (setting [3]) it was 953 nM; with HLA-A*02:03 (setting [3]) it was 11900 nM.

For the sequence ETLLLLGLMI, the Kd with HLA-A*26:01 (source organism: Dengue virus 3 Martinique/1243/1999) is ≥ 54400 nM.

Take SVIEKMETL: the Kd with HLA-A*26:01 (source organism: Dengue virus 2 Jamaica/1409/1983) is 152 nM.

Sequence GPRTRGYAI came in with a Kd with HLA-B*07:02 (source organism: Mycobacterium tuberculosis) of 9 nM.

ILYDTGSSW: the Kd was 119 nM with HLA-B*15:01 (setting [4]), 10200 nM in the test with HLA-A*02:01 [1] (setting [4]) and 92.8 nM with HLA-B*58:01.

One may read the IC50 as the concentration that gives 50% inhibition. Lower therefore signals greater potency. LVCKDHLAS: the IC50 with HLA-A*02:01 [2] (source organism: Sudan ebolavirus) was ≥ 185000 nM.

In the case of SIQDNQVAY, in the test with HLA-B*46:01, the Kd came out at 19700 nM.

For the sequence ITPNNLNKI, the Kd was 14600 nM with HLA-A*02:02 (setting [3]), 409 nM with HLA-A*02:06 (setting [3]) and 876 nM with HLA-A*02:03 (setting [3]).

As to FVKKMLPKII, the Kd turned out to be 11100 nM with HLA-A*02:02 (setting [3]), 6710 nM in the test with HLA-A*02:06 (setting [3]) and 1140 nM with HLA-A*02:03 (setting [3]).

For the sequence TNAEFTFQL, the dissociation constant Kd turned out to be 404 nM with HLA-A*02:02 (setting [5]), 3620 nM in the test with HLA-A*02:06 (setting [5]) and 15000 nM with HLA-A*02:03 (setting [5]).

In turn, KTSQVPKLL showed an IC50 with HLA-A*02:01 [2] (source organism: Variola virus) of 23500 nM.

In the case of MMLAQAYYG, the Kd with HLA-B*15:01 (setting [6]) was determined as 5780 nM; with HLA-A*69:01 (setting [6]), 3190 nM; with HLA-A*02:01 [1] (setting [6]), 273 nM.

As to KIILFLTLI, the Kd stood at 68.1 nM with HLA-A*02:02 (setting [7]), 24.3 nM with HLA-A*02:06 (setting [7]) and 4.94 nM with HLA-A*02:03 (setting [7]).

Turning to SLFSLLPGV, the Kd in the test with HLA-A*69:01 (source organism: Amur virus) and with HLA-A*02:01 [1] (source organism: Amur virus) was ≤ 1 nM throughout.

Turning to AAIDRQVSV, the values for the dissociation constant (Kd) with HLA-A*02:02 (setting [3]), with HLA-A*02:06 (setting [3]) and with HLA-A*02:03 (setting [3]) were 933 nM, 14.9 nM and 18.6 nM, respectively.

Regarding SASDMQKFTI, the Kd worked out at 10800 nM with HLA-A*02:02 (setting [3]), 4250 nM with HLA-A*02:06 (setting [3]) and 1220 nM in the test with HLA-A*02:03 (setting [3]).

For the sequence KLISEKETL, the Kd with HLA-A*02:02 (setting [3]) was 841 nM; in the test with HLA-A*02:06 (setting [3]), 7650 nM; with HLA-A*02:03 (setting [3]), ≥ 24700 nM.

Take QLSGLGINAV: the IC50 with HLA-A*02:01 [2] (source organism: Hepatitis C virus subtype 1b) is 123 nM.

On to YLLFNHFSV, for which the Kd is 1.24 nM with HLA-A*02:02 (setting [3]), 0.725 nM in the test with HLA-A*02:06 (setting [3]) and 1.59 nM with HLA-A*02:03 (setting [3]).

With RIKSVLDII, the Kd with HLA-A*02:02 (setting [3]) amounted to 111 nM; with HLA-A*02:06 (setting [3]), 2080 nM; with HLA-A*02:03 (setting [3]), 17.6 nM.

As to NAVTTNNLL, the Kd is 1850 nM with HLA-A*02:02 (setting [3]), 202 nM in the test with HLA-A*02:06 (setting [3]) and ≥ 24900 nM with HLA-A*02:03 (setting [3]).

Regarding AMHDKKIDI, the figures for the dissociation constant Kd with HLA-A*02:02 (setting [3]), in the test with HLA-A*02:06 (setting [3]) and with HLA-A*02:03 (setting [3]) were 17200 nM, ≥ 42000 nM and 1520 nM, respectively.

As for ITNILGGVL, the equilibrium dissociation constant (Kd) is 7380 nM with HLA-A*02:02 (setting [3]), ≥ 32400 nM with HLA-A*02:06 (setting [3]) and 2440 nM with HLA-A*02:03 (setting [3]).

Regarding LHPASAWTLY, the Kd with HLA-A*30:02 (source organism: Dengue virus 1 Brazil/97-11/1997) stood at 53.7 nM.

Consider NVLAWLYAA, for which the Kd came out at 7.31 nM with HLA-A*02:02 (setting [7]), 1.58 nM with HLA-A*02:06 (setting [7]) and 15.3 nM with HLA-A*02:03 (setting [7]).

With GMMGGLWKY, in the test with HLA-B*46:01, the Kd is ≥ 20000 nM.

With MSIQLINKAV, the values for the Kd with HLA-A*02:02 (setting [8]), with HLA-A*02:06 (setting [8]) and with HLA-A*02:03 (setting [8]) were 11300 nM, 619 nM and 1790 nM, respectively.

In the test with HLA-B*07:02 (source organism: Human herpesvirus 4 strain B95-8), RPPIFIRRL displayed a Kd of 356 nM.

With HTKFWISDNT, the Kd with HLA-A*02:02 (setting [3]) was ≥ 21500 nM; with HLA-A*02:06 (setting [3]), ≥ 69800 nM; with HLA-A*02:03 (setting [3]), ≥ 60200 nM.

Take DAKRNSKSLV: the dissociation constant Kd is 13300 nM with HLA-A*02:02 (setting [3]), ≥ 52100 nM with HLA-A*02:06 (setting [3]) and 2870 nM in the test with HLA-A*02:03 (setting [3]).

Take MLSEGRMNS: in the test with HLA-A*02:01 [2] (source organism: Vaccinia virus), the IC50 amounted to 6520 nM.

For LAYYNSCML, the Kd is 12800 nM with HLA-A*02:02 (setting [3]), ≥ 21500 nM with HLA-A*02:06 (setting [3]) and 15500 nM in the test with HLA-A*02:03 (setting [3]).
